Experimental data from the supplement of paper PMC6379048.

Experiments:
Assay in all cases: EC50 of free RNA motif oligo competing protein binding to immobilised probe
CSTF3 = molecular target: T1, CSTF3 (UniProt Q12996)
T1 sequence: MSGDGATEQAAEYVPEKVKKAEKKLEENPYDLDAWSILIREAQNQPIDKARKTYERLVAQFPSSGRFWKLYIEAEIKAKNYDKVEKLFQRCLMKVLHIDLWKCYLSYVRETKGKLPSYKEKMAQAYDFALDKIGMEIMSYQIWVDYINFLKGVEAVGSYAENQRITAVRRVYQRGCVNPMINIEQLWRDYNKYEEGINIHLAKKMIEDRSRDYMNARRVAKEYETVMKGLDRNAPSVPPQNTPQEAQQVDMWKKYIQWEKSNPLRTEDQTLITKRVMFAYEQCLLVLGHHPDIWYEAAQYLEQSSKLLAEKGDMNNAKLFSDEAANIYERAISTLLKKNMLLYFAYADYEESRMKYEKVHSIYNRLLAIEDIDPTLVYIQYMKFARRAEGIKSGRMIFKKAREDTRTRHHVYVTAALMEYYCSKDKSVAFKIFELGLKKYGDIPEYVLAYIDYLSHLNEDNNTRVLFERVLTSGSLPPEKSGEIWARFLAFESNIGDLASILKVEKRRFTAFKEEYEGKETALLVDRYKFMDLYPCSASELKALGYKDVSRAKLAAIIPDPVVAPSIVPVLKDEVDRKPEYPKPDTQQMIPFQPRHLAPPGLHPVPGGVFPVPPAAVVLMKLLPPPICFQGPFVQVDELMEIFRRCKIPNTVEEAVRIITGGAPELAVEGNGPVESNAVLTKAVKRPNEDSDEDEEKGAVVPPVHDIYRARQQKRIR
How it was run: (§1)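 Free RNA oligos (0 nM to 30 μM) competed for 1 h at 4°C in HEK293-FT lysate (2.5 mg protein/well) before a 30 min, 4°C pulldown with the same oligos on NHS-Sepharose beads. Bound proteins were quantified by label-free LC-MS/MS and normalised to the control. Kd was found by multiplying EC50, from a four-parameter log-logistic fit, by a protein-dependent depletion factor.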

ELAVL1 = ELAVL1 (UniProt Q15717)
How it was run: as §1

FUBP3 = molecular target: T2, FUBP3 (UniProt Q96I24)
T2 sequence: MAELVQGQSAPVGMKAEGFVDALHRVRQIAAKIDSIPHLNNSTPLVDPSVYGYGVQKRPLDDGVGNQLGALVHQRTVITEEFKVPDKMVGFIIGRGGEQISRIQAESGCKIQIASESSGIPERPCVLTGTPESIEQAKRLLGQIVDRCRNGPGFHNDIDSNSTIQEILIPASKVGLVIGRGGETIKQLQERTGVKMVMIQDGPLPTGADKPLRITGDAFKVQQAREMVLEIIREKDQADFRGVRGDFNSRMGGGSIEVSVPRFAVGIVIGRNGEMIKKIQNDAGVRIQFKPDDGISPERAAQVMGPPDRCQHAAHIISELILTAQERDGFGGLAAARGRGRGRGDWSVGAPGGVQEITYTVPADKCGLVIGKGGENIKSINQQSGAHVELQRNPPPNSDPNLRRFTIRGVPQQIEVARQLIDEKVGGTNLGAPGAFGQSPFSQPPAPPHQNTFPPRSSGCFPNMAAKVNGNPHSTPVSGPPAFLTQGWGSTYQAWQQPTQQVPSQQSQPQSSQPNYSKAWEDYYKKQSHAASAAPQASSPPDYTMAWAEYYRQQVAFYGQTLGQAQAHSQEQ
How it was run: as §1

LSM7 = molecular target: T3, LSM7 (UniProt Q9UK45)
T3 sequence: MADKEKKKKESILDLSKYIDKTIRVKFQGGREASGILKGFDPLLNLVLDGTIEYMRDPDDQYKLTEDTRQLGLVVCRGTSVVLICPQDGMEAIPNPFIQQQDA
How it was run: as §1

TFIP11 = molecular target: T4, TFIP11 (UniProt Q9UBB9)
T4 sequence: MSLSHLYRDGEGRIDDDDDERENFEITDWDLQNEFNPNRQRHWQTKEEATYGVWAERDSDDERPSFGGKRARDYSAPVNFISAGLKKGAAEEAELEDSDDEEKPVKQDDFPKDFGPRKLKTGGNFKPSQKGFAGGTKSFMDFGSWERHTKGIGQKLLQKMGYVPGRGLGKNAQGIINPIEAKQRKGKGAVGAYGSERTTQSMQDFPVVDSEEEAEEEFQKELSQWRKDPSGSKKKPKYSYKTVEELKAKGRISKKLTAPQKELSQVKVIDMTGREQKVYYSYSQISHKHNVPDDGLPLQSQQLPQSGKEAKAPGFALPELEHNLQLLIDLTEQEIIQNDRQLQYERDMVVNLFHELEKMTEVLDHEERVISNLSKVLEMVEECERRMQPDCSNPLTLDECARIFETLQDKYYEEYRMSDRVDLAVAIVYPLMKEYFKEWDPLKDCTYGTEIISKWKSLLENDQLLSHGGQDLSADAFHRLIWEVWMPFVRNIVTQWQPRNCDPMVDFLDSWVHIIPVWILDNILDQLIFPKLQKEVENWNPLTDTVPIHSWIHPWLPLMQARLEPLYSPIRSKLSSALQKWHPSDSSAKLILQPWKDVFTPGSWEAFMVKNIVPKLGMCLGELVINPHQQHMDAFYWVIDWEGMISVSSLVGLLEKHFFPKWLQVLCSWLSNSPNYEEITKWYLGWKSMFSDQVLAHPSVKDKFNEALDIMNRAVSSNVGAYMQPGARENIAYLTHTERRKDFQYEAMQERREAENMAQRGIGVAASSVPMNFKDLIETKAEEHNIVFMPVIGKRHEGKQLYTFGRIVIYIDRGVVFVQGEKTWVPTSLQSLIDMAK
How it was run: as §1

ELAVL1, sequence (Q15717 whole entry): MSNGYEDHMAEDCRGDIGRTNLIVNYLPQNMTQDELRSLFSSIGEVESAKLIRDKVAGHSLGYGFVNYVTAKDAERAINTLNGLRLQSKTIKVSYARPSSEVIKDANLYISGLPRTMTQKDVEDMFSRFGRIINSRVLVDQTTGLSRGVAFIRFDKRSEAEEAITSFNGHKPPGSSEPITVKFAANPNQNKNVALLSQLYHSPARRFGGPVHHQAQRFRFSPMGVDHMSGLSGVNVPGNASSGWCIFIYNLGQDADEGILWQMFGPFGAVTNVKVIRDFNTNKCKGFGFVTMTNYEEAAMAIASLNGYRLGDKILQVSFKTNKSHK

Sequence	EC50 (CSTF3)	EC50 (ELAVL1)	EC50 (FUBP3)	EC50 (LSM7)	EC50 (TFIP11)
AAUAAA	80.7 nM	5060 nM	2150 nM	655 nM	2350 nM
UAUUUAU	600 nM	3040 nM	802 nM	302 nM	2390 nM
